In the supplement of paper PMC10567573:

B1: FCHSD1 (parent)
chain: LEAAEVILEHAHRGEQTTSQVSWE

Variants of: B1
Assay: protein stability index of a GFP-peptide fusion (GPS, HEK-293T) (PSI 1-6); higher = more stable
Settings: c terminus: a fixed tail appended
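Also: lentivirally expressed fusions sorted by FACS into six bins by GFP to DsRed ratio, PSI derived from sequencing read proportions per bin multiplied by bin number.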

| Variant | protein stability index |
| --- | --- |
| LEAAEVILGHAHRGEQTTSQVSWE [E9G] | 3.87 |
| LEAANVILEHAHRGEQTTSQVSWE [E5N] | 3.63 |
| LEAAFVILEHAHRGEQTTSQVSWE [E5F] | 2.29 |
| LDAAEVILEHAHRGEQTTSQVSWE [E2D] | 4.31 |
| LEAAEVILEHAHRGRQTTSQVSWE [E15R] | 3.87 |
| LEAAEVILEHAHRGEFTTSQVSWE [Q16F] | 3.53 |
| LEAAEVILEHAHRGEDTTSQVSWE [Q16D] | 4.9 |
| LEAAEVILEHAHRGELTTSQVSWE [Q16L] | 2.92 |
| LEAAEVILEHAHRGEQVTSQVSWE [T17V] | 4.37 |
| LEAAEVILEHAHRGEQWTSQVSWE [T17W] | 3.54 |
| LEAAEVILEPAHRGEQTTSQVSWE [H10P] | 4.41 |
| LENAEVILEHAHRGEQTTSQVSWE [A3N] | 4.43 |
| LERAEVILEHAHRGEQTTSQVSWE [A3R] | 4.41 |
| LEAAEVILEHAHRGEQTTSQVSDE [W23D] | 5.55 |
| LEAAEVILEHAHPGEQTTSQVSWE [R13P] | 4.9 |
| LEAAEVILEHAHRGEQTTSQVSWQ [E24Q] | 3.95 |

| Variant | protein stability index |
| --- | --- |
| LEAAEVILEHAHRGEQTTSQVSWI [E24I] | 2.01 |
| LEAAEVILEHAHRGEQTTSQVSWM [E24M] | 2.72 |
| LEAAEVILEHMHRGEQTTSQVSWE [A11M] | 4.46 |
| LEAAEVILEHAHRGEQTTPQVSWE [S19P] | 4.7 |
| LEAAEVILEHAHRGEQTTYQVSWE [S19Y] | 2.64 |
| LEAAEVILEHAHRGEQTTRQVSWE [S19R] | 4.42 |
| LEAAEVILEHAHRGEQTRSQVSWE [T18R] | 3.93 |
| LEAAEVIAEHAHRGEQTTSQVSWE [L8A] | 4.96 |
| LEAAEVIVEHAHRGEQTTSQVSWE [L8V] | 4.83 |
| LEAAEVPLEHAHRGEQTTSQVSWE [I7P] | 4.89 |
| LEAAEVALEHAHRGEQTTSQVSWE [I7A] | 4.71 |
| LEAAEVILEHAHRGEQTTSQVIWE [S22I] | 4.41 |
| LEAAEVILEHAHRDEQTTSQVSWE [G14D] | 4.68 |
| LEAPEVILEHAHRGEQTTSQVSWE [A4P] | 5.19 |
| LEAKEVILEHAHRGEQTTSQVSWE [A4K] | 4.24 |
| LEAAEVILEHAHRGEQTTSQSSWE [V21S] | 5.51 |
